From patent EP4545559A2 (INSTITUTO BUTANTAN, dated 2025)
Read-outs that look alike come from different tables or passages of the source.

Experiments:
RBD Delta (L452R/T478K) [1] = biological target: T1, RBD Delta (L452R/T478K) (SARS-CoV-2, UniProt P0DTC2 319-541); assay: SPR, antigen on CM5 sensor
T1 construct: domain: RBD

[2] = biological target: T2, RBD Gamma (K417T/E484K/N501Y) (SARS-CoV-2, UniProt P0DTC2 319-541); assay: SPR, antigen on CM5 sensor
T2 construct: domain: RBD

[3] = biological target: T3, RBD Omicron (G339D, S371L, S373P, S375F, K417N, N440K, G446S, S477N, T478K, E484A, Q493R, G496S, Q49 (SARS-CoV-2, UniProt P0DTC2 319-541)); assay: SPR, antigen on CM5 sensor
T3 construct: range 319-541

[4] = biological target: T2, RBD Gamma (K417T/E484K/N501Y); assay: SPR kinetics; *** did not dissociate until 36000sec
[5] = biological target: T3, RBD Omicron (G339D, S371L, S373P, …); assay: as above
RBD Delta (L452R/T478K) [6] = biological target: T1, RBD Delta (L452R/T478K); assay: SPR kinetics; ** dissociation in 36000sec
RBD Delta (L452R/T478K) [7] = biological target: T1, RBD Delta (L452R/T478K); assay: SPR, antigen on CM5 sensor; remark: listed apart in the source
[8] = biological target: T2, RBD Gamma (K417T/E484K/N501Y); assay: SPR, antigen on CM5 sensor; remark: listed apart in the source
[9] = biological target: T3, RBD Omicron (G339D, S371L, S373P, …); assay: SPR, antigen on CM5 sensor; remark: listed apart in the source
[10] = biological target: T3, RBD Omicron (G339D, S371L, S373P, …); assay: SPR kinetics; * dissociation in 360sec
RBD Delta (L452R/T478K) [11] = biological target: T1, RBD Delta (L452R/T478K); assay: SPR kinetics; *** did not dissociate until 36000sec
[12] = biological target: T2, RBD Gamma (K417T/E484K/N501Y); assay: as above; remark: listed apart in the source
RBD Delta (L452R/T478K) [13] = biological target: T1, RBD Delta (L452R/T478K); assay: as above; remark: listed apart in the source
[14] = biological target: T2, RBD Gamma (K417T/E484K/N501Y); assay: as above; remark: listed apart in the source
[15] = biological target: T3, RBD Omicron (G339D, S371L, S373P, …); assay: SPR kinetics; ** dissociation in 36000sec
RBD Delta (L452R/T478K) [16] = biological target: T1, RBD Delta (L452R/T478K); assay: SPR, antigen on CM5 sensor; remark: listed apart in the source
[17] = biological target: T2, RBD Gamma (K417T/E484K/N501Y); assay: SPR, antigen on CM5 sensor; remark: listed apart in the source
[18] = biological target: T3, RBD Omicron (G339D, S371L, S373P, …); assay: SPR, antigen on CM5 sensor; remark: listed apart in the source
RBD Delta (L452R/T478K) [19] = biological target: T1, RBD Delta (L452R/T478K); assay: SPR, antigen on CM5 sensor; remark: listed apart in the source
[20] = biological target: T2, RBD Gamma (K417T/E484K/N501Y); assay: SPR, antigen on CM5 sensor; remark: listed apart in the source
[21] = biological target: T3, RBD Omicron (G339D, S371L, S373P, …); assay: SPR, antigen on CM5 sensor; remark: listed apart in the source
RBD Delta (L452R/T478K) [22] = biological target: T1, RBD Delta (L452R/T478K); assay: SPR kinetics; *** did not dissociate until 36000sec; remark: listed apart in the source
[23] = biological target: T2, RBD Gamma (K417T/E484K/N501Y); assay: as above; remark: listed apart in the source
[24] = biological target: T3, RBD Omicron (G339D, S371L, S373P, …); assay: as above; remark: listed apart in the source
[25] = biological target: T3, RBD Omicron (G339D, S371L, S373P, …); assay: SPR kinetics; * dissociation in 360sec; remark: listed apart in the source
RBD Delta (L452R/T478K) [26] = biological target: T1, RBD Delta (L452R/T478K); assay: SPR, antigen on CM5 sensor; remark: listed apart in the source
[27] = biological target: T2, RBD Gamma (K417T/E484K/N501Y); assay: SPR, antigen on CM5 sensor; remark: listed apart in the source
[28] = biological target: T3, RBD Omicron (G339D, S371L, S373P, …); assay: SPR, antigen on CM5 sensor; remark: listed apart in the source
RBD Delta (L452R/T478K) [29] = biological target: T1, RBD Delta (L452R/T478K); assay: SPR kinetics; *** did not dissociate until 36000sec; remark: listed apart in the source
[30] = biological target: T2, RBD Gamma (K417T/E484K/N501Y); assay: as above; remark: listed apart in the source
[31] = biological target: T2, RBD Gamma (K417T/E484K/N501Y); assay: as above; remark: listed apart in the source
RBD Delta (L452R/T478K) [32] = biological target: T1, RBD Delta (L452R/T478K); assay: SPR kinetics; * dissociation in 360sec
[33] = biological target: T3, RBD Omicron (G339D, S371L, S373P, …); assay: SPR kinetics; * dissociation in 360sec; remark: listed apart in the source
RBD Delta (L452R/T478K) [34] = biological target: T1, RBD Delta (L452R/T478K); assay: SPR, antigen on CM5 sensor; remark: listed apart in the source
[35] = biological target: T2, RBD Gamma (K417T/E484K/N501Y); assay: SPR, antigen on CM5 sensor; remark: listed apart in the source
[36] = biological target: T3, RBD Omicron (G339D, S371L, S373P, …); assay: SPR, antigen on CM5 sensor; remark: listed apart in the source

B1: Monoclonal antibody S.9.2.D7 (antibody, V domains shown)
VH: EVQLLESGGGLIQTGGSLRLSCAASGFTFSSYAMSWVRQAPGKGLEWVSVISDSGGSTYYADSVKGRLTISRDNSKNTLYVQMNSLRAEDTAVYYCAKGKGGIAAAGPAFLFDYWGQGTLVTVSS
VL: DIQMTQSPSLLSASAGDRVTISCRMSQGISSYLAWYQQKPGKAPELLISSASTLQSGVPSRFSGSGSGTDFTLTISYLQSEDFATYYCQQYYSFPTTFGGGTKVEIK
notes: also called mAb S.9.2.D7
Work on B1 yielded an RU (RBD Delta (L452R/T478K) [1]) of 0 RU, an RU [2] of 50 RU and an RU [3] of 0 RU. For the same binder, the Kd [4] was about 0.000237 nM, the Kd [5] was about 0.00629 nM and the Kd (RBD Delta (L452R/T478K) [6]) was 0.00184 nM.

B2: Monoclonal antibody S.9.4.C7 (antibody, V domains shown)
VH: QVQLVESGGGVVQPGRSLRLSCAASGFTFRNYAMHWVRQAPGKGLEWVTVISYDGSDKYYADSVKGRFTISRDNSKNTLYLQMNSLRAEDTAVYYCAKDPVGGYCSGGRCYFHSHYFDYWGQGTLVTVSS
VL: NFMLTQPHSVSESPGKTVTISCTRSSGSIASYYVQWYQQRPGSSPTTVISEDNQRPSGVPDRFSGSIDSSSNSASLTISGLKTEDEADYYCQSYDSNNHVIFGGGTKLTVL
notes: also called mAb S.9.4.C7
Binder B2 has an RU (RBD Delta (L452R/T478K) [7]) of 1150 RU, an RU [8] of 481 RU and an RU [9] of 160 RU. It also gave a Kd [10] of 1.31 nM, a Kd (RBD Delta (L452R/T478K) [11]) of about 0.14 nM and a Kd [12] of about 0.205 nM.

B3: Monoclonal antibody S.9.4.F4 (antibody, V domains shown)
VH: QVQLVESGGGVVQPGRSLRLSCAASGFTFSHYGMHWVRQAPGKGLEWVAVILYDGSNEYYADSVKGRFTISRDNSKNTLYLQMNSLRAEDTAVYYCAKGAGTYCSGGNCYVAYFDYWGQGTLVTVSS
VL: AIRMTQSPSSLSASVGDRVTITCQASQDISNYLNWYQQKPGKAPKLLIYDASNLETGVPSRFSGSGSGTDFTVTISSLQPEDFATYYCQQYDNLPLTFGGGTKVEIK
notes: also called mAb S.9.4.F4
For B3, the Kd (RBD Delta (L452R/T478K) [13]) was about 0.00122 nM, the Kd [14] was about 0.0187 nM and the Kd [15] was 0.231 nM. The RU (RBD Delta (L452R/T478K) [16]) was 373 RU, the RU [17] was 160 RU and the RU [18] was 74 RU.

B4: Monoclonal antibody S.10.1.C6 (antibody, V domains shown)
VH: QLQLQESGPGLVKPSETLSLTCTVSGGSISSSSYYWGWIRQPPGKGLEWIGSFYYSGGSYYNPSLKSRVTISVDTSKNQFSLKLSSVTAADTAVYYCARDEHGDYAVGYWGQGTLVTVSS
VL: QSVLTQPPSVSGAPGQRVTISCTGSSSNIGAGYDVHWYQQLPGTAPKLLIYGNNNRPSGVPDRFSGSKSGTSASLAITGLQAEDEADYYCQSYDSSLSALYVFGTGTKVTVL
notes: also called S.10.1.C6 mAb
B4 was tested, and the RU (RBD Delta (L452R/T478K) [19]) was 343 RU, the RU [20] was 134 RU and the RU [21] was 66 RU. It also gave a Kd (RBD Delta (L452R/T478K) [22]) of about 0.00812 nM, a Kd [23] of about 0.235 nM and a Kd [24] of about 0.804 nM.

B5: Monoclonal antibody S.11.1.C8 (antibody, V domains shown)
VH: QVQLVESGGGVVQPGRSLRLSCAASGFTFSTFSMHWVRQAPGKGLEWVAVILYDGTYKSYADSVKGRFTISRDNSGNTLFLQMNSLRAEDSAVYYCARDFGEMTTYFDFWGQGTLVTVSS
VL: DIQMTQPPSSLSASVGDRVTITCRASQSIGNNLNWYQQKPGKAPKLLIYVASSLQSGVPSRFSGSGSGTDFTLTISSLQPEDFATYFCQQSYSTPPWTFGQGTKVEIK
notes: also called mAb S.11.1.C8
Work on B5 yielded a Kd [25] of 0.615 nM, an RU (RBD Delta (L452R/T478K) [26]) of 799 RU and an RU [27] of 360 RU. The RU [28] was 166 RU, the Kd (RBD Delta (L452R/T478K) [29]) was about 0.0131 nM and the Kd [30] was about 0.103 nM.

B6: Monoclonal antibody S.11.1.D12 (antibody, V domains shown)
VH: EVQLLESGGGLVQPGGSLRLSCAASGFPFITYPMSWVRQAPGKGLEWVSDIGGIGGSTSYADSVKGRFTISRDNYQNTVYLQMHSLRAEDTAVYYCAKWKSRVDSSYKGGGWFDSWGPGTLVTVSS
VL: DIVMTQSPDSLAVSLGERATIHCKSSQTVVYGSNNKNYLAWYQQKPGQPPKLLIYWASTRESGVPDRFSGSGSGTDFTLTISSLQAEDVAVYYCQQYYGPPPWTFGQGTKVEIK
notes: also called mAb S.11.1.D12
In the case of B6, the Kd [31] is reported as about 11 nM, the Kd (RBD Delta (L452R/T478K) [32]) is reported as 0.636 nM and the Kd [33] is reported as 3.73 nM. The RU (RBD Delta (L452R/T478K) [34]) was 771 RU, the RU [35] was 44 RU and the RU [36] was 145 RU.
